# Test results as given in the DeepSol protein solubility set.
# Assay: soluble on expression in E. coli; label from the status in PepcDB or PDB records
row,Sequence,soluble on expression in E. coli
1,GITPRFSITQDEEFIFLKIFISNIRFSAVGLEIIIQENMIIFHLSPYYLRLRFPHELIDDERSTAQYDSKDECINVKVAKLNKNEYFEDLDLPTKLLARQGDLAGADALTENTDAKKTQKPLIQEVETDGVSNN,soluble
2,GSGSEPAVCEMCGIVGTREAFFSKTKRFCSVSCSRSYSSNSKK,soluble
3,MAQSKILLYYKFTPIADPKAMMLWQRDMCELLGLKGRILISEHGINGTVGGDMDACKRYVRKMREYPGFRGTEFKWSDGGAEDFPKLSVKVRDEIVAFGAPGELKVDEKGVIGGGVHLKPEEVNKLVEERGDDVVFFDGRNAMEAQIGKFKNAVVPDVRTTHDFIRELESGKYDWMKDKPVVSYCTGGIRCEILSSLMKNRGFKEIYQIDGGIVRYGEKYGNDGLWEGSLYVFDRRMHMEFGNGVQDPGFIQLGHCVQCGAPTNKFEHCINEDECRELVLMCPDCYENPATRNCGREHCKEVAAEAAAAAAV,not soluble
4,MGSDKIHHHHHHMFQYFPTNYVWSLSAMIALTHGGQIGEVDQMCAPLVDAARAGNDPGTLAFFNAWKSGADKLAELAEEDKSGGRLLSAGEKLGRAALYYIIAERMQAHDFDGRLALYKHSLDVFLEGVRLARENCERIEIPYQDRHISGLYVRAVGVQGRAPVVVVMNGLDSTKEMLYRSCITSYLSRRGVAVLLVDQPGTGEALRLQKLHAIPQTEIWASKIVDYLQARTDIDPVRIGALGVSLGGYYAPRAVAFEPRFAAGAVWGANHDWREVQKRRLAREGENPVPHYWKHVEWVFGASDLDDFMQCAEAMHLNGVLDRIKVPFLVTHGENDRQIPVQYAHQTYEQLANSPRRELKIFTAREGGVEHSSLDNPTNAGSYIADWLAEQLHGTTA,not soluble
5,SLTAAENIQEQLYPAPIKTVEEGSPAARAGVRPGDVLLRVNGQPVTDVLAYRHQLERGVVTLEVARPHEAPRVMTGVAGTAQDHHRLMLPQPPSLDETLTFTVEWEDPGLDFEEVLFDGIKKCANKCDFCYVHQMPRGFRKSLYIMDDDYRLSFLYGSFVTLTNLTEGDINRILDENLSPLYVSVHTANQDLRQDMMKWWKLKVKDPQAVQIREMIERLESIDLYTQIVLVPERNDRENLDETVEYLSSRPNVISAAVVPIGLTAHRTNLPDVRTFTPEEAQDTLRRLNVWRRKFLAERGTRFIFPSDELYLLAGEPLPTEEEYEGFPMLENGVGMIRDFLTEALPPLPAALPEPRKVILGTGLLFADSLARAIEPLRQIEGLDIEVRAIENKTFGKVTTVAGLLTGRCFRHAVQPGEADLLIVPPTTLRYGTELMIDDTSLGELRRELKMDVRAGGATLGELARVVLEGAQSSGHQFGMSAHAVKDSGRDDVAPSASRAQGGAAPEESLEEDVAESGMHGRGQA,soluble
6,MSFRIGRRCFSKQSYDAIIIGGGHNGLTAAAYLTKAGKKVCVLERRHVVGGAAVTEEIVPGFRFSRASYLLSLLRPVVMQELNLKKFGLRYHIRNPNSFTPIRNTHESLLLGMDMAENQKEIAKFSQRDAGNYPKYEHFISEIVHSFEQLMDYEPLDLQKPIHKLLPHLYLLFKTVQPLGLRNAVDFYELMTAPISKIMNKWFESDVLKATLGTDGVIGLAASPMDPGTGYVLLHHVIGGLDEHKGAWGYVYGGMGAVSNAIAECAKSHGAEIYTEQDVQEVLLDGNVAKGVRLSNGKELHSKIVMSNATPHVTFNHLVKKESLPEEFHRNINQIDYTSPVTKINVAVKELPNFLAKPNQGSEPMPHHQTTIHMNCENMQVVHDAVMDYKNGRYSRRPVIEMTIPSSVDRTIVDSADGHVVLLFTQYTPFSPKDGEWTEEKKTEYAKHVFSEIDAYAPNFSSSVIGYDILTPPDIQNTFGITGGNIFHGSMSLDQLYVSRPISKWSNYSTPIESLYLCGSGAHPGGGVTGAPGRLSALHALKHF,not soluble
7,SNAMKWKKSLAGLSSYKPGKREEEVMAELGLTKITKLSSNENPLGTSKKVAAIQANSSVETEIYPDGWASSLRKEVADFYQLEEEELIFTAGVDELIELLTRVLLDTTTNTVMATPTFVQYRQNALIEGAEVREIPLLQDGEHDLEGMLNAIDEKTTIVWICNPNNPTGNYIELADIQAFLDRVPSDVLVVLDEAYIEYVTPQPEKHEKLVRTYKNLIITRTFSKIYGLASARVGYGIADKEIIRQLNIVRPPFNTTSIGQKLAIEAIKDQAFIGECRTSNANGIKQYEAFAKRFEKVKLYPANGNFVLIDLGIEAGTIFSYLEKNGYITRSGAALGFPTAVRITIGKEEDNSAVIALLEKLL,soluble
8,MGSDKIHHHHHHAQETIPDVEVSTMDMWVKETRSVSEYLNMPVLHFKDEQVYSETLRQLKNMTENERFTYFQQLGFEGAYILWEQADRELDKIFDMESDDSHLIQEMINTYKDKYSDIFSFNTVDLFDVTPYFTFTDNDLSLLGNIKGYVVIGNSLRGPKYDYPTYDLDEVVSATRAAEPTPIEPGFKGFKDASLTIKNGKYKSTMTIGRIVNGNSFAVEFKTKKKQLFWKKSVKAGYSAMLTMKSSKFNYKNTVFCPYGKEVSILNLPIERVGNVFDAVVENFKSSRGDAKGNQSFHNIRVI,not soluble
9,MGSDKIHHHHHHMKKYLTLAASALLLAACSEKPGYEINGTVANTDLNGKYVYLYEYGVQDAAPMDSALVQNGTFTFKGTQSAPALRKLAFAEDVVEPKRAASGENAPFTSVFVLENGKLQAVLDEAASAVSGTPENDGLKALQAQMKTLRADLEKLSADMKSEDKEVVSAAEKKYDEIDQKVTDAVKTYILNNTTKQSAAKLLYDFRYSLDEAAQNEIIAKADSAFKAVPNIDKLMAHLDVLKTVAVGKKFVDFEMADPNGKTHKLSEFVGNGKNIVLIDFWASWCPPCRRDMPNLVAAYKKYKNKGFEIVGISLDSKADAWAKGVKDLNITWTQLSDLQGWKNSGAQLYGVNSIPHTVLVDKDGTIIAKNLHGEEIDAKLQEILK,not soluble
10,MSLDGKPTIIIKYGKIDEEAMKSQRYNFDDLMVQLRENSIDRVADVSFAILEPSGKLTIVKKENSGEHRQLEMPLIIDGFIQTENLSRISKDRKWLLESLQKHGYTNPSDISFCSFTDGEIYIDEKDGHRTKGIITITTDPNSSSVDKLAAALEHHHHHH,soluble
11,MKKRYLVLTALLALSLAACSQEKTKNEDGETKTEQTAKADGTVGSKSQGAAQKKAEVVNKGDYYSIQGKYDEIIVANKHYPLSKDYNPGENPTAKAELVKLIKAMQEAGFPISDHYSGFRSYETQTKLYQDYVNQDGKAAADRYSARPGYSEHQTGLAFDVIGTDGDLVTEEKAAQWLLDHAADYGFVVRYLKGKEKETGYMAEEWHLRYVGKEAKEIAASGLSLEEYYGFEGGDYVD,not soluble
12,MGSDKIHHHHHHMSGIRLVRAKITYLHDSCTFNFINENMSVKLLWSVPYRGDRMITYESVYPIQSKDVAKLIITKVRNNPKTLSVFDRSINGKTLFIGYLEYSDNSPFYLSNRVGTIFYDEYTGTGGDVISMITTADNFDLIREDLSVYGKIVHRQVQEIEAESINGPPRLTEMQEKVLRNAFEMGFFNYPKDVHLKDIAQKIGVSAVSVDQYLREAQRKLIRAYLNG,not soluble
13,MSDVTNTWNERYDTEEFVYGREPNAFLAGVSAMMPPGDVLCLAEGEGRNAVFLARQGHRVLAVDASAVGLSKAARLAEEHGVRIETLTTDLADLVIEPGRWDAIVSIFCHVPPPVRRVLHRQAVAGLRPGGLFVLEAYTPAQLELRTGGPPTVELLMTLADLREELAGLEFLQAREIERDVVEGRLHTGRGAVVQIVARKPLEHHHHHH,soluble
14,MLETKDLNLFLGNKHVLKNISLSIPVRGEIIGIMGPNGAGKSSLIKSLIGEFNATGTKLLYNKPIQQQLQHITYIPQKAHIDLDFPISVEQVILSGCYKEIGWFRRPNKSARDKLKQLLSDLELESLRHRQISELSGGQLQRVLVARALMSESEVYFLDEPFVGIDFSSEKLIMTKIENLKQQGKLILIIHHDLSKAKQYFDRIILLNQTLRYFGDSEEAMSVTRLNETFMSSTDCSDPSQRSNITC,not soluble
15,MSLAEKPIKLGVLEDQSGDFAVATIGKVHAIQLAADEINKAGGIMGRPLELVVYDTQSDNTRYQEFMRRVLQRDKADAVFAGFSSASREAYRPIVDQLNGLAFYNNQYEGGVCDGHMIVTGAVPEQQFSTLIPWMMEKYGKKVYTLAADYNFGQISAEWVRNIVKQHGGEMAGVEFIPLGVSQFSQSIQNIQKAKPDFVVTLLVGTAQASYYEQAASANVNLPMASSVNVGQGYEHKRFKPPSLKDMYVTTNYIEEIDSPQSKAFLAKFKAKFPNEPYVNQEAENSYLAVYLYKQMVERAKSTNRDEIRKVIAQGDVCMDAPEGKVCIDPKSQHMSHTIYLAHVNADHSIDFPKVWPDIKPYWLGEAGCDLTKKDPMAQYTPSNEGHHHHHH,soluble
16,MESVESAARDYRETLAELRNNNKTQINLLTILADDFKKAAPQIVEVIERHLTTCSPSQKLLVMYVCDSILKNVKKPNDYDALFARKIVSMFEHAFRQGDERIRTSLYRIRVTWASTTLFMPSKLYELDMKINKLDPNWPISNPQTGRALRDDPQVMAPSQSRPAGNATSPAASTSTNRVFVNPKFIGSSTPGAASASKTVVEKTKSPGTVNKEKQVKKEPKQDPLDKLLPSSSASKTSSSPAGLKRKSAPSEHPNAPIRKKPQQPPKPQTAIDEDLRSISLTKKPPVPSAQDQDFRPKTLKPTSVIGSHAFAPVAAPIRPMIPVPPPVSVAPFVPAPPLSSAPPFQHPQQHHPQLPPPPVHQGMGRGYHHNSPPQDPAPIVPVQAPPPQQHLPAPENVYSSEQPKLDVPANNRIFVDGKAYEVMFVDDTAVIERGGAPHRIYFAGPPRNLVIDGIPHLLQFDTPTQIDILGSKHMVKFGAPSRELYIGGHPFKGQFGGPPIIATINGRRHEIRLTGSAPEVRIEPEPAYHLTHFLHKMREEKKIEIASEKPEKKEDWLSYLKNLRTRNILPAPARSPSSPRNQTPPPANLPIPGMNNAGQRGGYHNRHQPQQNARWGGANKQQNIPPPPSDPSPIGSGVEKRSAPPAAITDFNIRLLQIRYDSVVDALITKRADACKFCGMRLDDSQGKSKEWQDHMDWHVKQNLARHGSNNSAAVPYRQWYPSTSTWLTPRASDETNEQEADKPEEPLPGVASSGVKTKECSVCGEKFDEYYDDDEETWRLRDTVNVHGKIVHSACASDAARSLDNSSFFNDSDIKKEEPFD,not soluble
17,MDSHCRVRPAGPAVPADCDPPRITHAALAARLGDARLLTLYDQATWSEGPAWWEAQRTLVWSDLVGRRVLGWREDGTVDVLLDATAFTNGNAVDAQQRLVHCEHGRRAITRSDADGQAHLLVGRYAGKRLNSPNDLIVARDGAIWFTDPPFGLRKPSQGCPADPELAHHSVYRLPPDGSPLQRMADLDHPNGLAFSPDEQTLYVSQTPEQGHGSVEITAFAWRDGALHDRRHFASVPDGLPDGFCVDRGGWLWSSSGTGVCVFDSDGQLLGHIPTPGTASNCTFDQAQQRLFITGGPCLWMLPLP,soluble
18,MRITVLILSTLLVTILNGLPIVPVVEDSISPEEVPEPSPEIEENTVPPPRVISPRVDVSVDVNEDGVLDIDEIRYAAFVHHGLSASVVEDLFKQVDTNRDNVLDAREFDAIRMLVLEKAENAALRYLQNVDTDRDGLLSLQEAQIYLLREYGIGYHDVARLWKLVPADLSDRMNSTLFSKLRRRVRGMTIRLARQIMKNADLNGDGHISVDEAQAIAFEQEGIGAGDVASMVGSVDENMDGELNAPEFADFERIIRARAIENSKKAMRVVDADNSGTLTLDEAKRVAFEHYGFDEATLAPFFGQADENEDGQLDNVEFAGFRSVIRARSVRDAMDKMKRIDTNGDGLVSNAEATDSTKKEDDMDSEETLALFNIADQNKSGKLDKVELADFNRLVRLSSIKFATDHFKEFDLDGNDAVTFDEIALLIEQKYGIPRSMIKTFFDRIDVDGSGDLMPAEIVDFRHLIRNHVSQQRQEKVYFLTL,not soluble
19,MAHHHHHHMETENVPLENEENQNENYEQEENTLAQEAEIVLITTSLGGIKSSFFSSLRAHQLLNCKKYIYFSIDANRDTSSAKNLKDIELFNKWKKGMILLSNENGIVLPQILIDGVPLGNDVTLQNLEDEGILDYIIARLKCPNCLIDKSNIEERCPGCKKYYVTLITDDLIQNDSVIRILQGEPYKEPENE,soluble
